Series [1] has as its target T1, GtrS (Pseudomonas aeruginosa, UniProt Q9HZ47). Kind of series: isothermal titration calorimetry with purified recombinant GtrS-LBD; 2-KG also accelerates autophosphorylation of full-length GtrS in membranes. It is filed as binding. A general note: Isothermal titration calorimetry measures the heat released or taken up as one component is titrated into another.
The target in series [2] is T1, GtrS. Kind of series: isothermal titration calorimetry with purified recombinant GtrS-LBD. It is filed as binding.
Series [3] deals with T2, GltR (Pseudomonas aeruginosa PAO1) (UniProt G3XCY6).
T2 sequence: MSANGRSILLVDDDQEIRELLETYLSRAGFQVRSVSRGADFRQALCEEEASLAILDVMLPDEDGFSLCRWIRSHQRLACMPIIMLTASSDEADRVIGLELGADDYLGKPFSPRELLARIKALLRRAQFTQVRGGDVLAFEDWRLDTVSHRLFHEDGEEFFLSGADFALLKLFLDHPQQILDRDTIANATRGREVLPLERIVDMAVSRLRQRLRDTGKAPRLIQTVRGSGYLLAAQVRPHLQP
As to the kind of experiment: EMSA. Conditions: EMSA: 2 nM 32P-DNA, 50 mM Tris-HCl pH 7.5, 10 mM NaCl, 0.5 M Mg acetate (so in the source), 0.1 mM EDTA, 1 mM DTT, 5% glycerol, 20 ug/ml poly(dI-dC), 200 ug/ml BSA ….

For series [4], the system named is GltR (Pseudomonas aeruginosa PAO1). Kind of series: EMSA. Conditions: EMSA: 2 nM 32P-DNA, 50 mM Tris-HCl pH 7.5, 10 mM NaCl, 0.5 M Mg acetate (so in the source), 0.1 mM EDTA, 1 mM DTT, 5% glycerol, 20 ug/ml poly(dI-dC), 200 ug/ml BSA …. On the technique in general: A gel shift assay detects complexes by their altered migration in electrophoresis.

T1 sequence (Q9HZ47 30-197): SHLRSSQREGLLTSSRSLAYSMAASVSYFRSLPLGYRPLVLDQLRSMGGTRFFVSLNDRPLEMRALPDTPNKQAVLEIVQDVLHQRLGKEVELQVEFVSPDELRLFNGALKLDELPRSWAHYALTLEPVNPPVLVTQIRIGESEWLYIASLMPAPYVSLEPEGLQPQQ

A word on the Kd: it is a measure of binding affinity in units of concentration. On to `O=C(O)C(=O)[C@@H](O)[C@H](O)[C@H](O)CO` [2-KG, 2-ketogluconate], for which, at GtrS [1], the Kd was 4.95 ± 0.8 µM.

As for `O=C(O)[C@H](O)[C@@H](O)[C@H](O)[C@H](O)COP(=O)(O)O` [6PG, 6-phosphogluconate], the dissociation constant Kd at GtrS [2] stood at 98 ± 33 µM.

With “AGATCTTGCAGCTTTACCGAGAGCCTCAACGGCTGGCGCTGATTCTGATAGGTCGATATCCGCCGGCGCTTGGCTGGCGGCTGTCTCTCCGGCAACATCTGCCGACCGTCCCGCCCTGGCGCGGGGCATTGCGGTTCAACGACGATGAATAACGACAACAAGAGAAGCGCCGGCGGCCTCGGCCTGGTCGGCGATATCGCTGCAG (double strand) [Pglk promoter fragment]”, the K half in series [3] turned out to be 1000 nM.

In series [4], Pedd/gap-1 promoter fragment yielded a K half of 1000 nM.

Pglk promoter fragment showed a K half in series [4] of 1000 nM.

Take PoprB promoter fragment: the K half in series [4] came to 1000 nM.

Take PtoxA promoter fragment: in series [4], the K half worked out at 1000 nM.

Source of the values: paper PMC4081096, “GtrS and GltR form a two-component system: the central role of 2-ketogluconate in the expression of exotoxin A and glucose catabolic enzymes in Pseudomonas aeruginosa” (Nucleic Acids Research, 2014).
